Patent US20240336672A1

Tests used:
Settings in all cases: remark: other sources report otherwise
[1] = biological target: SARS-CoV-2 RBD (B.1.1.7) domain (SARS-CoV-2); assay: ELISA; parameters: unit not given beside the values
[2] = biological target: SARS-CoV-2 RBD (B.1.351) domain (SARS-CoV-2); assay: ELISA; parameters: unit not given beside the values
[3] = biological target: SARS-CoV-2 RBD (P.1) domain (SARS-CoV-2); assay: ELISA; parameters: unit not given beside the values
[4] = biological target: SARS-CoV-2 delta plus variant RBD (SARS-CoV-2); assay: ELISA; parameters: unit not given beside the values
[5] = biological target: T1, SARS-CoV-2 delta variant B.1.617.2/3 RBD domain (SARS-CoV-2); assay: ELISA; parameters: unit not given beside the values
[6] = biological target: T2, SARS-CoV-2 kappa variant B.1.617.1/3 RBD domain (SARS-CoV-2); assay: ELISA; parameters: unit not given beside the values
[7] = biological target: SARS-CoV-2 RBD (B.1.1.7) domain (SARS-CoV-2); assay: RBD/ACE2 blocking ELISA
[8] = biological target: SARS-CoV-2 RBD (B.1.351) domain (SARS-CoV-2); assay: RBD/ACE2 blocking ELISA
[9] = biological target: SARS-CoV-2 RBD (P.1) domain (SARS-CoV-2); assay: RBD/ACE2 blocking ELISA
[10] = biological target: SARS-CoV-2 delta plus variant RBD (SARS-CoV-2); assay: RBD/ACE2 blocking ELISA
[11] = biological target: T1, SARS-CoV-2 delta variant B.1.617.2/3 …; assay: RBD/ACE2 blocking ELISA
[12] = biological target: T2, SARS-CoV-2 kappa variant B.1.617.1/3 …; assay: RBD/ACE2 blocking ELISA
[13] = biological target: SARS-CoV-2 RBD (B.1.1.7) domain (SARS-CoV-2); assay: ELISA
[14] = biological target: SARS-CoV-2 RBD (P.1) domain (SARS-CoV-2); assay: ELISA
[15] = biological target: T1, SARS-CoV-2 delta variant B.1.617.2/3 …; assay: ELISA
[16] = biological target: T2, SARS-CoV-2 kappa variant B.1.617.1/3 …; assay: ELISA

| Binder | AUC [1] | AUC [2] | AUC [3] | AUC [4] | AUC [5] | AUC [6] | % binding inhibition [7] [%] | % binding inhibition [8] [%] | % binding inhibition [9] [%] | % binding inhibition [10] [%] | % binding inhibition [11] [%] | % binding inhibition [12] [%] | OD405nm [13] | OD405nm [14] | OD405nm [15] | OD405nm [16] |
| --- | --- | --- | --- | --- | --- | --- | --- | --- | --- | --- | --- | --- | --- | --- | --- | --- |
| CT-P59 (parental IgG1 version) (antibody, V domains shown) VH: QITLKESGPTLVKPTQTLTLTCSFSGFSLSTSGVGVGWIRQPPGKALEWLALIDWDDNKYHTTSLKTRLTISKDTSKNQVVLTMTNMDPVDTATYYCARIPGFLRYRNRYYYYGMDVWGQGTTVTVSS VL: ELVLTQPPSVSAAPGQKVTISCSGSSSNIGNNYVSWYQQLPGTAPKLLIYDNNKRPSGIPDRFSGSKSGTSATLGITGLQTGDEADYYCGTWDSSLSAGVFGGGTELTVL | 3 | 3 | 4 | 3 | 3 | 3 | 86 | 49 | 19 | 91 | 91 | 94 | – | – | – | – |
| REG (antibody) heavy chain variable region (VH): QITLKESGPTLVKPTQTLTLTCSFSGFSLSTSGVGVGWIRQPPGKALEWLALIDWDDNKYHTTSLKTRLTISKDTSKNQVVLTMTNMDPVDTATYYCARIPGFLRYRNRYYYYGMDVWGQGTTVTVSS light chain variable region (VL): ELVLTQPPSVSAAPGQKVTISCSGSSSNIGNNYVSWYQQLPGTAPKLLIYDNNKRPSGIPDRFSGSKSGTSATLGITGLQTGDEADYYCGTWDSSLSAGVFGGGTELTVL | – | – | – | – | – | – | – | – | – | – | – | – | 3.2 | 3.6 | 3.4 | 3.5 |
